Test results: patent US8440190

Molecular target: immobilized CD52 (human) (UniProt P31358)
Experiment: Fab fragments assayed for binding to immobilized CD52

fold reduction of binding against the humanized Campath-1 Fab [fold]	Substance
3	humanized Campath-1 Fab with (VH) CDR1 replaced by that of NEW
8	humanized Campath-1 Fab with (VH) CDR3 replaced by that of NEW
3	humanized Campath-1 Fab with (VL) CDR3 replaced by that of REI
